These results are taken from paper PMC3401101.

Assay [1] concerns the target T1, DNA topoisomerase IIIα (UniProt Q13472).
T1 sequence: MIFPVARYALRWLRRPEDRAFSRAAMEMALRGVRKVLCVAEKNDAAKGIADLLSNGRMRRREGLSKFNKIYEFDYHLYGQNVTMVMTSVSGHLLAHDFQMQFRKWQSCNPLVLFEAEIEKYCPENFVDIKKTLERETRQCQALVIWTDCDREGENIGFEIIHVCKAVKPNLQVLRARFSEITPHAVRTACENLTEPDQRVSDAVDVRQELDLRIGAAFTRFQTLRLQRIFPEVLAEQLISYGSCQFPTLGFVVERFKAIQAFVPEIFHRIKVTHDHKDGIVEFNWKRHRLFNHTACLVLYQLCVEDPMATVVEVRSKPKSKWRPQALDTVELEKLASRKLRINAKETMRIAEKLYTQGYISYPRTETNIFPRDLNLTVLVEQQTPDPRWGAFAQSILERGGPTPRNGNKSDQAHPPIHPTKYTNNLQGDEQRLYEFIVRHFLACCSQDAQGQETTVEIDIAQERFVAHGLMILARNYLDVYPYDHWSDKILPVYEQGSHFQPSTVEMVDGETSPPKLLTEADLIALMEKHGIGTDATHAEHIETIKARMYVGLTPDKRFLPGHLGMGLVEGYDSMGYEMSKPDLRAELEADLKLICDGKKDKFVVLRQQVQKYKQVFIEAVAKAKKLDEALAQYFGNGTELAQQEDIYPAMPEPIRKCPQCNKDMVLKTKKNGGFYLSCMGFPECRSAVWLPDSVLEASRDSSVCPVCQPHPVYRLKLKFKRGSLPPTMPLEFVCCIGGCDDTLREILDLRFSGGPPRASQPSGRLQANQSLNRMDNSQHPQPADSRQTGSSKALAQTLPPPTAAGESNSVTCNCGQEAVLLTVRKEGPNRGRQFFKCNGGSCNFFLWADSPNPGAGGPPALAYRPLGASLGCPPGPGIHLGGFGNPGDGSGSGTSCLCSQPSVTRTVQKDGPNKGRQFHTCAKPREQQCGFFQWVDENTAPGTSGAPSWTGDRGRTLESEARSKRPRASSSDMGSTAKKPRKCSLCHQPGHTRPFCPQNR

For assay [2], the target named is T1, DNA topoisomerase IIIα. This is another data set of the same source.

In the case of “BLM (from UniProt P54132 1-1417) (enzyme)”, the TopoIIIα decatenase activity with BLM (33-66 nM) in the presence of RPA (100 nM), against TopoIIIα alone with DNA topoisomerase IIIα [1] turned out to be 1.5 fold.

B1: RMI1 (natural protein)
chain: MNVTSIALRAETWLLAAWHVKVPPMWLEACINWIQEENNNVNLSQAQMNKQVFEQWLLTDLRDLEHPLLPDGILEIPKGELNGFYALQINSLVDVSQPAYSQIQKLRGKNTTNDLVTAEAQVTPKPWEAKPSRMLMLQLTDGIVQIQGMEYQPIPILHSDLPPGTKILIYGNISFRLGVLLLKPENVKVLGGEVDALLEEYAQEKVLARLIGEPDLVVSVIPNNSNENIPRVTDVLDPALGPSDEELLASLDENDELTANNDTSSERCFTTGSSSNTIPTRQSSFEPEFVISPRPKEEPSNLSIHVMDGELDDFSLEEALLLEETVQKEQMETKELQPLTFNRNADRSIERFSHNPNTTNNFSLTCKNGNNNWSEKNVSEQMTNEDKSFGCPSVRDQNRSIFSVHCNVPLAHDFTNKEKNLETDNKIKQTSSSDSHSLNNKILNREVVNYVQKRNSQISNENDCNLQSCSLRSSENSINLSIAMDLYSPPFVYLSVLMASKPKEVTTVKVKAFIVTLTGNLSSSGGIWSITAKVSDGTAYLDVDFVDEILTSLIGFSVPEMKQSKKDPLQYQKFLEGLQKCQRDLIDLCCLMTISFNPSLSKAMVLALQDVNMEHLENLKKRLNK
On to B1, for which the TopoIIIα-mediated decatenation of single-stranded catenane with both BLM (17 nM) and RMI1 (75-150 nM) in the presence of RPA (100 nM), against TopoIIIα alone with DNA topoisomerase IIIα [2] was found to be 30 fold.
